Assay results: patent publication US20090068224A1, “METHOD TO IDENTIFY POLYPEPTIDE TOLL-LIKE RECEPTOR (TLR) LIGANDS” (VAXINNATE CORPORATION, priority 2005, published 2009)

Legend:
TLR2 [1] = molecular target: T1, TLR2 (Homo sapiens, UniProt O60603); set-up: host or cells: monocytes and epithelial cells; details: cited from earlier work
Target sequence in this assay (O60603 21-784, species assumed): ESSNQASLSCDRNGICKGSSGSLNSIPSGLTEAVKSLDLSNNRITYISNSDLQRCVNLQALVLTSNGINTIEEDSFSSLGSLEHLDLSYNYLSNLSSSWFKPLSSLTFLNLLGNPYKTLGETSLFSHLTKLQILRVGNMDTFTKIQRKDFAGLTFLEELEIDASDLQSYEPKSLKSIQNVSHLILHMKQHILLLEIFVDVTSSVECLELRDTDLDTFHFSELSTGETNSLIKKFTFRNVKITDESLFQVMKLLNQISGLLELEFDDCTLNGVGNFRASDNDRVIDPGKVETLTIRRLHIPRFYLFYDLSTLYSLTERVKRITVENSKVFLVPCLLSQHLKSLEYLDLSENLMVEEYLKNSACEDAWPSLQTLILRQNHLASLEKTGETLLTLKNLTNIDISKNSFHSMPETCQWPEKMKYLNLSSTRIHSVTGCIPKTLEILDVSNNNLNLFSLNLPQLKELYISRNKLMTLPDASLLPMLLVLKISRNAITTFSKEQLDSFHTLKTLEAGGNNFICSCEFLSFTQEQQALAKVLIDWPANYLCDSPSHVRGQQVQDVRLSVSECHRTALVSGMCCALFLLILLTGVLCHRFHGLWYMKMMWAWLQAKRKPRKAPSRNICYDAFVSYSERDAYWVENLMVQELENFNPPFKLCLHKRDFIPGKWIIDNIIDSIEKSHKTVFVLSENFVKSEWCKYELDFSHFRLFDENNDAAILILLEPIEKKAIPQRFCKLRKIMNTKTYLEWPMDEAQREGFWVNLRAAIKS

TLR2 [2] = molecular target: T1, TLR2; assay: NF-κB-dependent luciferase reporter assay, 293 vs 293.hTLR2 cells; format: cell-based; details: synthetic peptide on parental 293 and 293.hTLR2 cells, four to five hours at 37° C.
Protocol: NF-κB-dependent luciferase reporter assay: Parental 293 cells and 293.hTLR2 cells (see Example 1, above) were incubated with an aliquot of test peptide four to five hours at 37° C. NF-κB-dependent luciferase activity was measured using the Steady-Glo Luciferase Assay System by Promega (E2510), following the manufacturer's instructions. Luminescence was measured on a microplate luminometer (FARCyte, Amersham) and expressed as relative luminescence units (RLU) after subtracting the background reading obtained by exposing cells to the DMEM medium alone.
The biological activity of the TLR2-binding peptides isolated by the screening method was confirmed using the isolated peptides in an NF-κB-dependent reporter gene assay. For this assay, a synthetic monomer of the DPDSG motif (SEQ ID NO: 5), or a concatemerized copy (DPDSG)5, was incubated on parental HEK293 cells containing an NF-κB-dependent luciferase reporter construct (293) and on TLR2-overexpressing HEK293 cells containing an NF-κB-dependent luciferase reporter construct (293.hTLR2, see Example 1, above). Luciferase activity was then measured. […] Thus, the TLR2-binding peptides identified by the screening assay are functional peptide TLR2 ligands.
Target sequence in this assay (O60603 21-784): as the sequence (O60603 21-784, species assumed) above

[3] = molecular target: human TLR2 (293.hTLR2 cells) (Homo sapiens, UniProt O60603); assay: Biopanning of pentameric random peptide phage display library, sequencing of enriched clones; format: binding; details: percentage of all clones sequenced (n = 109) having given peptide sequence; after 4 rounds of biopanning, TLRlo parental HEK293, TLRhi 293.hTLR2; peptides with identity to known microbial proteins
Sequence of human TLR2 (293.hTLR2 cells) (O60603 21-784): as the sequence (O60603 21-784, species assumed) above
Protocol: Screening of phage display libraries by biopanning: Phage display libraries are screened for peptide TLR ligands according to the following procedure. The phage display library is incubated on an in vitro cultured monolayer of cells that express minimal amounts of the TLR of interest (TLR^lo) in order to reduce non-specific binding, and then transferred to an in vitro suspension culture of cells expressing the relevant TLR (TLR^hi) to capture phage with binding specificity for the target TLR. After several washes with PBS to remove phage remaining unbound to the TLR^hi cells, TLR^hi cell-bound phages are harvested by centrifugation. The TLR^hi cells with bound phage are incubated with E. coli (strain BLT5615) in order to amplify the phage. This process is repeated three or more times to yield a phage population enriched for high affinity binding to the target TLR.
In each round of biopanning, the harvested phage that are bound to TLR^hi cells can be titred prior to amplification, amplified, and then titred again prior to initiation of the next cycle of biopanning. In this way, it is possible to determine the percent (%) of input phage in each cycle that are ultimately harvested from the TLR^hi cells. This calculation provides a round-by-round measure of enrichment within the phage display library for phage that display TLR-binding peptides.
Construction of random peptide libraries (RPL): A pentameric random peptide phage display library of T7SELECT phage was constructed essentially as described in Example 2. A pair of phosphorylated oligonucleotides with the sequence NNBNNBNNBNNBNNB (where N=A/G/C/T, B=G/C/T) flanked at the 5′ and 3′ ends by EcoRI and HindIII sites, respectively, was synthesized. Equimolar amounts of the oligonucleotides were annealed by heating for 5 min at 90° C. with gradual cooling to 25° C. The double stranded DNA was ligated to T7Select 10-3 bacteriophage vector (Novagen) that had been previously digested with EcoRI and HindIII. The ligation reactions were packaged in vitro and titred using the host E. coli strain […] that was grown in M9TB (Novagen), generating 2.5×10^7 clones, representing about 75% coverage of the library. The recombinant phage were subjected to several rounds of amplification to generate a total library of 1.35×10^12 phage, ensuring representation in excess of 5×10^4 fold for each clone in the library.
Sequencing of phage inserts: Individual phage clones from the enriched pool are isolated via plaque formation in E. coli. The DNA inserts of individual phage are amplified in PCR using the commercially available primers T7SelectUP (5′-GGAGCTGTCGTATTCCAGTC-3′; SEQ ID NO: 37; Novagen, catalog #70005) and T7SelectDOWN (5′-AACCCCTCAAGACCCGTTTA-3′; SEQ ID NO: 38; Novagen, catalog #70006). The PCR product DNA is purified using the QIAquick 96 PCR Purification Kit (Qiagen) and subjected to DNA sequencing using T7SelectUP and T7SelectDOWN primers.
We constructed a pentameric random peptide phage display library in T7 phage. This phage library was then screened by biopanning as described in Example 3. For this screen, the TLR^lo cells were parental HEK293 (TLR2^−) cells, and the TLR^hi cells were HEK293 cells ectopically expressing human TLR2 (293.hTLR2, see Example 1, above). Phage bound to 293.hTLR2 cells were harvested, titred, and amplified prior to initiation of the each cycle of panning. In this way, it was possible to determine the % of input phage in each cycle that was ultimately harvested from the TLR2^hi cells.
After 4 rounds of biopanning, individual phage clones from the enriched pool were isolated via plaque formation in E. coli. […] phage clones were randomly picked for sequencing. Of the 109 individual clones examined the motif DPDSG was predominant (see Tables 6 and 7). […]

human TLR5 = molecular target: T2, human TLR5 (human, UniProt O60602 21-858); assay: fliC-phage incubated on 293 and 293.hTLR5 cells; NF-κB luciferase read-out
T2 construct: Expressed ectopically on HEK293 cells from the bought Invivogen plasmid pUNO-hTLR5 (293.hTLR5); also called hTLR5
T2 sequence (O60602 21-858 limits assumed): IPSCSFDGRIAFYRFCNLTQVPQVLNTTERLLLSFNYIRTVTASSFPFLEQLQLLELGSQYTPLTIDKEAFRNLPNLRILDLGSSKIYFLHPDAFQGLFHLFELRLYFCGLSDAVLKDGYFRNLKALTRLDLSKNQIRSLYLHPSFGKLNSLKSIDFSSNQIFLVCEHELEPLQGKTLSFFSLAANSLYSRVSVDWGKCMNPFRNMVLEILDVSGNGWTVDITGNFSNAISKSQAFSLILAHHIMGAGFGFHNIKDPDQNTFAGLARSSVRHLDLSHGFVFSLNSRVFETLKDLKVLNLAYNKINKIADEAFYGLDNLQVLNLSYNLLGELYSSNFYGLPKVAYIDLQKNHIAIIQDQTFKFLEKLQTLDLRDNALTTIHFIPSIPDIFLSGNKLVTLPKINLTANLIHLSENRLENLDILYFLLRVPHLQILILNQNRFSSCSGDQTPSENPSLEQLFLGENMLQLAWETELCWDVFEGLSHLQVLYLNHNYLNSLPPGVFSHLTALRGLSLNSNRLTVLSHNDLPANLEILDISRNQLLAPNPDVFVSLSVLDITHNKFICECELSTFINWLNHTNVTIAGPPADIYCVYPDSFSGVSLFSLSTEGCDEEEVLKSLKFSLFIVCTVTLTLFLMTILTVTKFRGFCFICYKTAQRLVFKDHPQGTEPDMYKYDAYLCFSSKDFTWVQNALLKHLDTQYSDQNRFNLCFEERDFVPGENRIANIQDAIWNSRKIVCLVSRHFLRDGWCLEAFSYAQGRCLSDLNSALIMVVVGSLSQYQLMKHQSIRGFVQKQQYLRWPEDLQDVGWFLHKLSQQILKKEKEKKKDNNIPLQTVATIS

GLTTE (PEPTIDEGLTTE) [A to G substitution variant of ALTTE]
antagonism of the wild-type peptide and full-length fimbrial protein (TLR2 [1]; single amino acid substitution (A to G), Ogawa et al. 1995): antagonize the activity of the wild-type peptide and full-length protein

ALTTE (PEPTIDEALTTE) [pentapeptide derived from fimbrial subunit protein, known TLR2 ligand]
activation of monocytes and epithelial cells via TLR2 signaling (TLR2 [1]; Ogawa et al. 1995, 2002, Asai et al. 2001): activate monocytes and epithelial cells via TLR2 signaling

(DPDSG)5 (DPDSGDPDSGDPDSGDPDSGDPDSG) [concatemerized copy of the DPDSG motif, solid phase synthesis]
NF-κB-dependent luciferase reporter gene expression (TLR2 [2]): activated luciferase reporter gene expression in a TLR2-dependent manner

DPDSG [peptide TLR2 ligand; also made as synthetic monomer]
NF-κB-dependent luciferase reporter gene expression (TLR2 [2]): activated luciferase reporter gene expression in a TLR2-dependent manner
% Abundance [3]: 46.8%

B1: T7 phage displaying the E. coli flagellin (fliC) protein (ligand)
chain: MAQVINTNSLSLITQNNINKNQSALSSSIERLSSGLRINSAKDDAAGQAIANRFTSNIKGLTQAARNANDGISVAQTTEGALSEINNNLQRVRELTVQATTGTNSESDLSSIQDEIKSRLDEIDRVSGQTQFNGVNVLAKNGSMKIQVGANDNQTITIDLKQIDAKTLGLDGFSVKNNDTVTTSAPVTAFGATTTNNIKLTGITLSTEAATDTGGTNPASIEGVYTDNGNDYYAKITGGDNDGKYYAVTVANDGTVTMATGATANATVTDANTTKATTITSGGTPVQIDNTAGSATANLGAVSLVKLQDSKGNDTDTYALKDTNGNLYAADVNETTGAVSVKTITYTDSSGAASSPTAVKLGGDDGKTEVVDIDGKTYDSADLNGGNLQTGLTAGGEALTAVANGKTTDPLKALDDAIASVDKFRSSLGAVQNRLDSAVTNLNNTTTNLSEAQSRIQDADYATEVSNMSKAQIIQQAGNSVLAKANQVPQQVLSLLQG
notes: also called fliC phage; recombinant fliC-phage
binding result (human TLR5): binds
